Reference: US20200155643

Target: Recombinant human protein C inhibitor (PCI, SERPINA5) (UniProt P05154)
Sequence (P05154 20-406): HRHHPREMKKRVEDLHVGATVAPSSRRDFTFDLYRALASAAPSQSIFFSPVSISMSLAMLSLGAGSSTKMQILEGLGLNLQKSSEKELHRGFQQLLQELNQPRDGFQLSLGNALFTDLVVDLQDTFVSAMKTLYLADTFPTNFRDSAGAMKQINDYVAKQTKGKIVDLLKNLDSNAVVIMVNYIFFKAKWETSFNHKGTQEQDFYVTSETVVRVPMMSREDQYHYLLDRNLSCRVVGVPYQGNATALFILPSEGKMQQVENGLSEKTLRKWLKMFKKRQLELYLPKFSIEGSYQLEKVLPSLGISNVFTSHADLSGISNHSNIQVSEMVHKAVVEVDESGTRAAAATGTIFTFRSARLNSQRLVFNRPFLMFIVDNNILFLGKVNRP

Substance | cleavage of PCI (anti-PCI immunoblot)
Recombinant human hepsin (R&D Systems 4776-SE-10) | resulted in the appearance of cleaved forms of PCI
Recombinant mouse testisin (R&D Systems 6820-SE-10) | PCI is a substrate for testisin ... testisin cleaves PCI at a second site
